Columns and labels:
[1] = biological target: T1, monomeric human CD19 Fc(kih) fusion protein (human, UniProt P0DOX5 223-449 = IgG part); assay: SPR ProteOn XPR36, Fab from bacterial supernatant captured by anti-human Fab, monomeric CD19-Fc as analyte
T1 construct: Heterodimeric Fc fusion with a single copy of the CD19 ectodomain; Part of the preparation was biotinylated at the Avi tag; the SPR text speaks of 'purified monomeric CD19-Fc' as analyte without saying whether it was biotinylated; also called monomeric CD19-Fc; human CD19-Fc fusion protein
Protocol: In order to further characterize the ELISA-positive clones, the off-rate was measured by surface plasmon resonance using a ProteOn XPR36 machine and compared with the parental humanized clone 8B8.
For this experiment, 7000 RU of polyclonal anti-human Fab antibody were immobilized on all 6 channels of a GLM chip by Amine coupling (NaAcetate pH4.5, 25 μl/min, 240 s) (vertical orientation). Each antibody-containing bacterial supernatant was filtered and 2-fold diluted with PBS, and then injected for 360 s at 25 μl/minute to achieve immobilization levels of between 100 and 400 response units (RU) in vertical orientation. Injection of monomeric CD19-Fc: For one-shot kinetics measurements, injection direction was changed to horizontal orientation, three-fold dilution series of purified monomeric CD19-Fc (varying concentration ranges between 150 and 6 nM) were injected simultaneously at 50 μl/min along separate channels 1-4, with association times of 180 s, and dissociation times of 300 s. […] Dissociation rate constants (koff) were calculated using a simple one-to-one Langmuir binding model in ProteOn Manager v3.1 software by simultaneously fitting the sensorgrams. […] Of note, the dissociation rate constants of clones 5A07 and 5B08 could not be determined due to inadequate fitting. […]

[2] = biological target: T2, human CD19 on WSU-DLCL2 cells (human, UniProt P15391 20-556); assay: flow cytometry on CD19+ WSU-DLCL2 cells, PE anti-human IgG F(ab')2 detection
T2 construct: Endogenous CD19 of the B-cell non-Hodgkin lymphoma line WSU-DLCL2; also called CD19+ WSU-DLCL2; human CD19-expressing tumor cells
T2 sequence: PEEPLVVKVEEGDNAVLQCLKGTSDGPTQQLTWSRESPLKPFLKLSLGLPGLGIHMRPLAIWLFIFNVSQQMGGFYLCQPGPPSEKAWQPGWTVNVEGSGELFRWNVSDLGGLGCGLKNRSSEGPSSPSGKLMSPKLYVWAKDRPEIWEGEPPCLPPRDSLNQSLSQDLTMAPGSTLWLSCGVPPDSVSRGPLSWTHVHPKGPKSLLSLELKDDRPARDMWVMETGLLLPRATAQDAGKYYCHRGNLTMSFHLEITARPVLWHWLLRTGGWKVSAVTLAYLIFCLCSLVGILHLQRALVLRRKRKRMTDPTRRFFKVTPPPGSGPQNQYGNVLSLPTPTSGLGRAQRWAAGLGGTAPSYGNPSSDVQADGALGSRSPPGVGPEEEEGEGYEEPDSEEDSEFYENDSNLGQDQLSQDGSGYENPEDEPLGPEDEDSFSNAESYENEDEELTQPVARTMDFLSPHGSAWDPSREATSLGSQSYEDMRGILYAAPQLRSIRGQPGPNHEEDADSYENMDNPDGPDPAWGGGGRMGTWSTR
Protocol: 0.1×10⁶ tumor cells resuspended in DPBS (Gibco by Life Technologies, Cat. No. 14190 326) were added to each well of a round-bottom suspension cell 96-well plate (greiner bio-one, cellstar, Cat. No. 650185). Cells were washed once with 200 μL DPBS. Cells were resuspended in 100 μL/well of 4° C. cold DPBS buffer containing 1:5000 diluted Fixable Viability Dye eFluor 660 (eBioscience, Cat. No. 65-0864-18) and plates were incubated for 30 minutes at 4° C. Cells were washed once with 200 μL/well 4° C. cold DPBS buffer and resuspended in 50 μL/well of 4° C. cold FACS buffer (DPBS supplied with 2% FBS, 5 mM EDTA pH8 (Amresco, Cat. No. E177) and 7.5 mM Sodium azide (Sigma-Aldrich S2002)) containing the CD19 binders at a series of concentrations, followed by incubation for 1 hour at 4° C. After extensive washing, cells were further stained with 50 μL/well of 4° C. cold FACS buffer containing 5 μg/mL PE-conjugated AffiniPure anti-human IgG F(ab′)2-fragment-specific goat F(ab′)2 fragment (Jackson ImmunoResearch, Cat. No. 109 116 098) for 30 minutes at 4° C. Cells were then washed twice with 200 μL/well 4° C. FACS buffer and cells were fixed in 50 μL/well DPBS containing 1% Formaldehyde (Sigma, HT501320-9.5L). Cells were resuspended in 100 μL/well FACS-buffer and acquired using the FACS LSR II (BD Biosciences). Data was analyzed using FlowJo V10 (FlowJo, LLC) and GraphPad Prism 6.04 (GraphPad Software, Inc).

[3] = biological target: T1, monomeric human CD19 Fc(kih) fusion …; assay: SPR ProteOn XPR36, 25 C, IgG from HEK supernatant captured by anti-human Fab, monomeric CD19-Fc as analyte
Protocol: The Affinity (KD) of the parental antibody 8B8 as well as it derivatives was measured by SPR using a ProteOn XPR36 instrument (Biorad) at 25° C. 7000 RU of polyclonal anti-human Fab antibody were immobilized on all 6 channels of a GLM chip by Amine coupling (NaAcetate pH4.5, 25 ul/min, 240 s) (vertical orientation). Each antibody-containing HEK supernatant was filtered, diluted with PBST (10 mM phosphate, 150 mM sodium chloride pH 7.4, 0.005% Tween 20) to a concentration of 10 ug/ml, and then injected at a for 360 s at 25 μl/minute to achieve immobilization levels between 500 and 800 response units (RU) in vertical orientation. Injection of monomeric CD19-Fc: For one-shot kinetics measurements, injection direction was changed to horizontal orientation, three-fold dilution series of purified monomeric CD19-Fc (varying concentration ranges between 150 and 6 nM) were injected simultaneously at 50 μl/min along separate channels 1-4, with association times of 180 s, and dissociation times of 300 s. A human IgG Fc fragment (150 nM) was injected in channel 5 as a negative control for specific binding to monomeric CD19-Fc. Buffer (PB ST) was injected along the sixth channel to provide an “in-line” blank for referencing. Regeneration was performed by two pulses of 10 mM glycine pH 1.5 and 50 mM NaOH for 30 s at 90 ul/min (vertical orientation). Association rate constants (kₒₙ) and dissociation rate constants (koff) were calculated using a simple one-to-one Langmuir binding model in ProteOn Manager v3.1 software by simultaneously fitting the association and dissociation sensorgrams. The equilibrium dissociation constant (KD) was calculated as the ratio koff/kₒₙ. The dissociation constant of all affinity-matured clones was improved compared to their parental clone 8B8.

Binder	EC50 [2] [nM]	other results
parental humanized anti-CD19 clone 8B8, Fab in bacterial supernatant (Fab, V domains shown, Soluble Fab expressed from the phagemid in bacterial supernatant (Flag-tagged); also called Parental 8B8; CD19 (8B8)) VH: QVQLVQSGAEVKKPGASVKVSCKASGYTFTDYIMHWVRQAPGQGLEWMGYINPYNDGSKYTEKFQGRVTMTSDTSISTAYMELSRLRSDDTAVYYCARGTYYYGSALFDYWGQGTTVTVSS VL: DIVMTQTPLSLSVTPGQPASISCKSSQSLENSNGNTYLNWYLQKPGQSPQLLIYRVSKRFSGVPDRFSGSGSGTDFTLKISRVEAEDVGVYYCLQLTHVPYTFGQGTKLEIK	–	koff [1]: 0.000301 s⁻¹
anti-CD19 clone 5B08 in P329GLALA human IgG1 format (antibody, V domains shown, also called CD19 (8B8-5B08)) VH: QVQLVQSGAEVKKPGASVKVSCKASGYTFTDYIMHWVRQAPGQGLEWMGYINPYNDGSKYTEKFQGRVTMTSDTSISTAYMELSRLRSDDTAVYYCARGTYYYGPQLFDYWGQGTTVTVSS VL: DIVMTQTPLSLSVTPGQPASISCKSSQSLETSTGNTYLNWYLQKPGQSPQLLIYRVSKRFSGVPDRFSGSGSGTDFTLKISRVEAEDVGVYYCLQLDSYPNTFGQGTKLEIKR	0.014	–
anti-CD19 clone 8B8 in P329GLALA human IgG1 format (antibody, V domains shown, also called Parental 8B8; parental antibody 8B8) VH: QVQLVQSGAEVKKPGASVKVSCKASGYTFTDYIMHWVRQAPGQGLEWMGYINPYNDGSKYTEKFQGRVTMTSDTSISTAYMELSRLRSDDTAVYYCARGTYYYGSALFDYWGQGTTVTVSS VL: DIVMTQTPLSLSVTPGQPASISCKSSQSLENSNGNTYLNWYLQKPGQSPQLLIYRVSKRFSGVPDRFSGSGSGTDFTLKISRVEAEDVGVYYCLQLTHVPYTFGQGTKLEIKR	–	Kd [3]: 2.36 nM; koff [3]: 0.000134 s⁻¹; kon [3]: 56600 M⁻¹ s⁻¹
anti-CD19 clone 2B03 in P329GLALA human IgG1 format (antibody, V domains shown, also called CD19 (8B8-2B03)) VH: QVQLVQSGAEVKKPGASVKVSCKASGYTFTDYITHWVRQAPGQGLEWMGYINPYNDGSKYTEKFQGRVTMTSDTSISTAYMELSRLRSDDTAVYYCARGTYYYGPDLFDYWGQGTTVTVSS VL: DIVMTQTPLSLSVTPGQPASISCKSSQSLETSTGNTYLNWYLQKPGQSPQLLIYRVSKRFSGVPDRFSGSGSGTDFTLKISRVEAEDVGVYYCLQLTHVPYTFGQGTKLEIKR	0.041	–
anti-CD19 clone 5H09 in P329GLALA human IgG1 format (antibody, V domains shown, also called CD19 (8B8-5H09)) VH: QVQLVQSGAEVKKPGASVKVSCKASGYTFTDYIMHWVRQAPGQGLEWMGYINPYNDGSKYTEKFQGRVTMTSDTSISTAYMELSRLRSDDTAVYYCARGTYYYGSALFDYWGQGTTVTVSS VL: DIVMTQTPLSLSVTPGQPASISCKSSQSLESSTGNTYLNWYLQKPGQSPQLLIYRVSKRFSGVPDRFSGSGSGTDFTLKISRVEAEDVGVYYCLQLIDYPVTFGQGTKLEIKR	0.02	–
anti-CD19 clone 2B11 in P329GLALA human IgG1 format (antibody, V domains shown, also called CD19 (8B8-2B11)) VH: QVQLVQSGAEVKKPGASVKVSCKASGYTFTDYIMHWVRQAPGQGLEWMGYINPYNDGSKYTEKFQGRVTMTSDTSISTAYMELSRLRSDDTAVYYCARGTYYYGPQLFDYWGQGTTVTVSS VL: DIVMTQTPLSLSVTPGQPASISCKSSQSLETSTGTTYLNWYLQKPGQSPQLLIYRVSKRFSGVPDRFSGSGSGTDFTLKISRVEAEDVGVYYCLQLLEDPYTFGQGTKLEIKR	0.034	–
anti-CD19 clone 7H07 in P329GLALA human IgG1 format (antibody, V domains shown, also called CD19 (8B8-7H07)) VH: QVQLVQSGAEVKKPGASVKVSCKASGYTFTDYIMHWVRQAPGQGLEWMGYINPYNDGSKYTEKFQGRVTMTSDTSISTAYMELSRLRSDDTAVYYCARGTYYYGSELFDYWGQGTTVTVSS VL: DIVMTQTPLSLSVTPGQPASISCKSSQSLETSTGNTYLNWYLQKPGQSPQLLIYRVSKRFSGVPDRFSGSGSGTDFTLKISRVEAEDVGVYYCLQATHIPYTFGQGTKLEIKR	0.034	–

— US20230312710A1 (Hoffmann-La Roche, published 2023)
